The substances below were run against CRM1^HA (high affinity mutant of CRM1) (UniProt Q6P5F9) (assay: ITC; TFP-NES, YFP-NES or NES peptides at 35–180 μM titrated onto CRM1^HA at 2–14 μM; 20°C; 20 mM HEPES pH 7.4, 50 mM NaCl, 1 mM TCEP, 1 mM MgCl2; independent binding sites model).

| Substance | Kd [µM] | dH [kJ/mol] | stoichiometry N |
| --- | --- | --- | --- |
| TFP-mutA(NES) (domain or fragment) | 2.38 | -60.7 | 0.54 |
| peptide AL (long NES motif of NPM mutant A, with Ile284) | 0.057 | -75.7 | 0.33 |
| TFP-mutE(NES) (domain or fragment) | 1.04 | -64.4 | 0.8 |
| YFP-PKI(NES) (domain or fragment) | 0.018 | -57.3 | 1.01 |
| peptide ES (short NES motif of NPM mutant E) | 0.076 | -87 | 0.4 |
| peptide EL (long NES motif of NPM mutant E, with Ile284) | 0.031 | -82.8 | 0.51 |

Reference: PMC4474691, “Leukemia-Associated Mutations in Nucleophosmin Alter Recognition by CRM1: Molecular Basis of Aberrant Transport” (PLoS ONE, 2015)
